Legend:
xPSM [1] = biological target: T1, xPSM (Homo sapiens, UniProt Q04609); assay: Final phage display round on xPSM bound to microtiter plates; format: binding
T1 construct: Purified human xPSM (the extracellular portion of human PSMA); S-tag (cleaved yes); made in house; host or cells: Sf-9 insect cells infected with recombinant baculovirus; released from S-protein agarose by enterokinase
Text: In addition to phage library partitioning by cell binding, a final round of binding was completed on xPSM (Tag-xPSM digested with enterokinase) bound to plastic microtiter plates. This final round was used to ensure that those peptides identified in the LNCaP screen were targeting PSMA and not another unknown surface protein.
Multiple individual phage from rounds three of LNCaP binding and the final round of xPSM binding were isolated, amplified, and sequenced. […] Two sequences are highly represented and are found in both cell and purified protein backgrounds.

xPSM [2] = biological target: T1, xPSM; assay: NAAG hydrolysis (NAALADase) assay with purified xPSM; format: biochemical; settings: 1, 10 and 100 micromolar; 30 nM NAAG substrate, 37° C., 10 minutes
Text: In another embodiment, the peptide compounds of the invention specifically enhance the enzymatic activity of PSMA. In another embodiment, peptide compounds of the invention may inhibit PSMA activity. Accordingly, the invention provides a method for assaying peptide compounds for the ability to modulate the activity of PSMA. This method is described in detail in Robinson, M. B. et al. (1987) J. Biol. Chem. 262:14498-506, incorporated herein by reference, as well as in Example 6 herein. Purified human xPSM (the extracellular portion of human PSMA) is incubated with a radiolabeled substrate, N-acetyl-L-aspartyl-L-[3,4-^3H]glutamate, plus the peptide compound being tested. Hydrolyzed substrate is then separated from intact substrate (e.g., by anion exchange chromatography) and quantitated to determine whether the test peptide compound was able to modulate PSMA activity.
N-acetyl-aspartyl-glutamate (NAAG) hydrolysis was performed essentially as previously described (Robinson, M. B. et al. (1987) J. Biol. Chem. 262:14498-506, incorporated herein by reference). In short, 65 ng purified xPSM was resuspended in NAALADase Buffer (50 mM Tris, pH 7.4, 0.5% Triton X-100) and incubated in the presence of peptides or inhibitors (1, 10, and 100 micromolar), along with the radiolabeled substrate N-acetyl-L-aspartyl-L-[3,4-^3H]glutamate (NEN Life Science Products, Boston, Mass.) at 30 nM. Reactions were run at 37° C. for 10 minutes. The reaction was then stopped by the addition of an equal volume of ice-cold 100 mM sodium phosphate, 2 mM EDTA. Products were separated from intact substrate using AG 1-X8 Formate resin (BioRad Laboratories, Hercules, Calif.) anion exchange chromatography. The reaction product, tritiated-glutamate, was eluted with 1M sodium formate and quantitated by scintillation counting. Intact NAAG remained in the column resin. Experiments were completed in triplicate and have been repeated. The data represents six data points from two experiments. Experiments were designed to allow 20% or less of the total substrate to be cleaved.

Tag-xPSM = biological target: T2, Tag-xPSM (Homo sapiens, UniProt Q04609); assay: Tag-xPSM phage display selection (agarose/cellulose), sequencing of selected phage; format: binding
T2 construct: made in house; host or cells: Sf-9 insect cells infected with recombinant baculovirus; protein harvested from the media
Protocol: 100 μl of S-protein agarose (2× in RPMI 1640+1% Fetal Bovine Serum (FBS) and 100 μl of CBind Resin (10 mg/ml in RPMI 1640+1% FBS) without fusion protein were used to negatively select the original phage display library. 2×10^11 plaque forming units (PFU) of 1.29×10^9 different sequence phage were incubated with each aliquot of resin for 1 hr at 37° C., while rotating. The S-tag agarose was pelleted and supernatant saved as the agarose counter-selected pool. The cellulose resin was transferred onto 200 μl of 9:1 dibutyl phthalate:cyclohexane and the resin pelleted through the organic phase. The aqueous supernatant was saved as the cellulose counter-selected pool. Each counter selected pool was then added to tag-xPSM agarose or cellulose resin and incubated for 1 hr at 37° C., while rotating. The tag-xPSM agarose was pelleted and washed three times in RPMI 1640+1% FBS. The agarose pellet was then saved for phage isolation. The Tag-xPSM cellulose was transferred onto 200 μl of 9:1 dibutyl phthalate:cyclohexane and the resin pelleted through the organic phase. The tube was then snap frozen in liquid nitrogen to isolate the resin pellet. Over 75% of Tag-xPSM remained bound to the cellulose resin through these conditions. The resulting phage-bound tag-xPSM agarose and tag-xPSM cellulose were then resuspended in 200 μl of log phage ER2738 cells and phage allowed to infect 1 hour at room temperature. A small aliquot was taken at this time to quantitate the number of phage bound per round of selection. The remaining PSMA bound phage was then amplified, tittered, and applied to the next round of phage display. There was only one counter-selection round, followed by a total of five positive selection rounds, applying between 10^10 to 10^11 PFU per round. The final round of selection included cross-selections, where selected phage pools from one PSMA background where applied to the other. Individual phage were isolated and sequenced from rounds three through five.
Individual phage plaques were amplified for 5 hours in ER2738 cells at 37° C. Amplified supernatant was incubated 1:1 with PEG/NaCl buffer (20% PEG 8000, 2.5 M NaCl) for 10 minutes at room temperature. Phage were microfuged 10 minutes at 20,000 g, 4° C. The phage pellet was suspended in 100 μl Iodide buffer (10 mM Tris-HCl, pH 8.0, 1 mM EDTA, 4M NaI). Single stranded DNA (ssDNA) was precipitated with 250 μl of 100% ethanol, pelleted, and washed in 70% ethanol. Each ssDNA pellet was suspended in 30 μl 10 mM Tris, pH 7.4. Each phage was sequenced using the Amersham DYE ET mix, by incubating 6 μl ssDNA, 1 μl of 5 μM-96 pill Sequencing Primer ([…]; SEQ ID NO:108), and 8 μl of DYE ET mix in a 96 well PCR plate and amplified by 30 cycles of 95° C. for 20 seconds, 50° C. for 15 seconds, and 60° C. for 1 minute. Sequencing reaction products were spun through G50-fine Sephadex column plates, prepared on Millipore-multiscreen plates. Products were sequenced and analyzed on the MegaBACE capillary sequencer. All sequences, minus the flanking cysteines, were aligned using the Baylor College of Medicine Clustal W1.8 Global Progressive Alignment (available online) with data presented by Boxshade 3.21 software (available online through the Swiss Institute for Bioinformatics).
2×10^11 plaque-forming units (PFU) of the library was incubated with each aliquot of resin for one hour at 37° C., while rotating. The S-tag agarose was pelleted and the supernatant saved as the agarose counter-selected pool. The cellulose resin was transferred onto a 9:1 ratio of dibutyl phthalate:cyclohexane and the resin centrifuged through the organic phase. The aqueous supernatant was saved as the cellulose counter-selected pool. Each counter selected pool was then added to tag-xPSM agarose or cellulose resin, respectively, and incubated for one hour at 37° C., while rotating (see FIG. 2). The Tag-xPSM agarose was pelleted, washed, and saved for phage isolation. […]

T1 sequence (Q04609 44-750 limits assumed): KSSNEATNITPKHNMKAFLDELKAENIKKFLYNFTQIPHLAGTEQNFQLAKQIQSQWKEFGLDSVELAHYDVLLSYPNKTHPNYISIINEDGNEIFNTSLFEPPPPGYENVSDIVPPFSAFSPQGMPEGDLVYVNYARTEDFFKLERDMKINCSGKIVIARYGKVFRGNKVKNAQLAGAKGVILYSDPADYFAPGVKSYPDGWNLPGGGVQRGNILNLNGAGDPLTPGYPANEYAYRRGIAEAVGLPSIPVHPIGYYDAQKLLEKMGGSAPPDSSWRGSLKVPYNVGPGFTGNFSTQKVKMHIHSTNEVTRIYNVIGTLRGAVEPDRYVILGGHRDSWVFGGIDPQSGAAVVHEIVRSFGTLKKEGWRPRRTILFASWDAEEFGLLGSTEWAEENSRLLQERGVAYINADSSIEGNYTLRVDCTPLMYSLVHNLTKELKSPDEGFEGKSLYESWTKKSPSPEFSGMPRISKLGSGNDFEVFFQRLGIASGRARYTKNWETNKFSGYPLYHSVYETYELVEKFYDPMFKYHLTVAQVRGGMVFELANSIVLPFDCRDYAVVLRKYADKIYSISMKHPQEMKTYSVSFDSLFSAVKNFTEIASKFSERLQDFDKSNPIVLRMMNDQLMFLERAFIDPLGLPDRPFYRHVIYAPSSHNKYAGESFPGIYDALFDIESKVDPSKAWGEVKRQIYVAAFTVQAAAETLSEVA
T2 sequence (Q04609 44-750 limits assumed): as above

Row | Compound | Number of times sequence was found, Round 1 xPSM (xPSM [1]) | Effect on PSMA enzymatic activity (xPSM [2]) | Number of times sequence was found, Round 3 (Tag-xPSM; Agarose) | Number of times sequence was found, Round 4 (Tag-xPSM; Agarose) | Number of times sequence was found, Round 5 (Tag-xPSM; Agarose) | Number of times sequence was found, Round 3 (Tag-xPSM; Cellulose) | Number of times sequence was found, Round 4 (Tag-xPSM; Cellulose) | Number of times sequence was found, Round 5 (Tag-xPSM; Cellulose) | Number of times sequence was found, Round 5 (Tag-xPSM; asterisk: cross-selected, agarose pool selected on cellulose (final resin))
1 | CTYNPSRWC [SEQ ID NO:29] | 7 | – | – | – | – | – | – | – | –
2 | CGSAARNWC [SEQ ID NO:32] | 0 | – | – | – | – | – | – | – | –
3 | N[C@@H](Cn1oc(=O)[nH]c1=O)C(=O)O [quisqualic acid, reference compound] | – | inhibited | – | – | – | – | – | – | –
4 | CKSGEVNYC [SEQ ID NO:34] | 0 | – | – | – | – | – | – | – | –
5 | CTLVPHTRC [SEQ ID NO:3] | – | enhanced | 0/0 | 13/13 | 0 | 0/0 | 13/13 | 2 | –
6 | CLAAPTGKC [SEQ ID NO:30] | 12 | – | – | – | – | – | – | – | –
7 | CNKSSLGTC [SEQ ID NO:13] | – | – | 0/0 | 0 | 0/0 | 0/0 | 1 | 0/0 | –
8 | CHKFQSKMC [SEQ ID NO:17] | – | – | 0/0 | 0 | 0/0 | 0/0 | 1 | 0/0 | –
9 | CTNPNMHHC [SEQ ID NO:35] | 0 | – | – | – | – | – | – | – | –
10 | CQKHHNYLC [SEQ ID NO:1] | – | enhanced | 0/0 | 0/0 | 0 | 0/0 | 0/0 | – | 12
11 | CDAVRYPVC [SEQ ID NO:20] | – | – | 0/0 | 0 | 0/0 | 0/0 | 1 | 0/0 | –
12 | CQFRHSAQC [SEQ ID NO:23] | – | – | 1 | 0/0 | 0/0 | 0 | 0/0 | 0/0 | –
13 | CNKAALGTC [SEQ ID NO:31] | 1 | – | – | – | – | – | – | – | –
14 | CTITSKRTC [SEQ ID NO:2] | – | – | 0 | 3/3 | 0 | 1 | 3/3 | 3 | –
15 | CGLPTRTAC [SEQ ID NO:16] | – | – | 0/0 | 0 | 0/0 | 0/0 | 1 | 0/0 | –
16 | CFPQSSDRC [SEQ ID NO:24] | – | – | 1 | 0/0 | 0/0 | 0 | 0/0 | 0/0 | –
17 | CTNSNMHHC [SEQ ID NO:22] | – | – | 1 | 0/0 | 0/0 | 0 | 0/0 | 0/0 | –
18 | CKPTNQHKC [SEQ ID NO:19] | – | – | 0/0 | 0 | 0/0 | 0/0 | 1 | 0/0 | –
19 | CPQPASRQC [SEQ ID NO:36] | 1 | – | – | – | – | – | – | – | –
20 | CKPSMMSYC [SEQ ID NO:8] | – | – | 0/0 | 0/0 | 0 | 0/0 | 0/0 | 1 | –
21 | CERNTYRFC [SEQ ID NO:33] | 0 | – | – | – | – | – | – | – | –
22 | CPSVNTKQC [SEQ ID NO:9] | – | – | 0/0 | 0/0 | 0 | 0/0 | 0/0 | 1 | –
23 | CAPNKYKHC [SEQ ID NO:11] | – | – | 0/0 | 1 | 0/0 | 0/0 | 0 | 0/0 | –

Reference: US7749968B2, “Peptides for targeting the prostate specific membrane antigen” (The Johns Hopkins University, priority 2002, dated 2010)
